Source: the nanobody polyreactivity screen of Harvey et al. (2022)

Assay: yeast display, Sf9 membrane polyspecificity reagent, FACS + sequencing; frameworks hold sequencing errors
Method in brief: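 Genes from sorted yeast were amplified by colony PCR, read by MiSeq 2 × 250 sequencing and filtered on CDR length. These cells carried a synthetic nanobody library in Saccharomyces cerevisiae BJ5465 and were sorted by FACS into low and high (top ~1%) gates on anti-HA and streptavidin fluorescence. Polyreactivity is labelled according to the gate of origin.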

Sequence	polyreactivity (PSR sort gate)
QVQLVESGGGLVQAGGSLRLSCAASGFTFYRYTMGWNRQAPGKERELVASITRRGGSTYYADSVKGRFTISRDNAKNTVYFQMNSLKPEDTAVYYCNAATPVWQSGTYEYWGQGTQVTVSS	high polyreactivity
QVQLVETAGGLVQAGASLRLSSAASGITFAYYAMGWYRQAPAKERELVAAISSSGGSTYYADSVKGRFTISRDNAKNTVYLQLNSLNPEDTAVYYCAVDYSYWVEYWGLGTQVTVSS	high polyreactivity
QVQHVESGGGLVQAGGSLRLSCAASGTTFYFYAMGWYRQAPGKERELVAAITYSGGSTYYADSVKGRFTISRDNAKNTVYLQMNSLKPEDTAVYYCAAQWRRHSTRSRYYYWGQGTQVTVSS	high polyreactivity
QVKLVESGRGLVQAGGSLRLSCAASGYKCIVYTMGWYRQAPGKERELVAAISSGGITAYADSVKGRITISRDNAKNTVYLQMNSLKPEYTAVYYWGQGTQVTVSS	low polyreactivity
QVQLVESGGGLVQAGGSLRLSCAASGIIFKTYAKGWYRPAPAKERELVAAISRRGGSTYYADSVNGRFTISRDNAKNTVYLQMNSLKPEDTAVYYCAAEYGYVIAYTTRAFYYWGHGTQVTVSS	high polyreactivity
QVQLVESGGGLVQAGGSLRLSCAASGSNFDYYTMGWYRQAPGKERELVAAISRSGGSTRYADSVKGRFTISRDNAKNTVYLQMNSLKPEDTGVSYCAAGARQGVYRGGDYWGQGTQVTVSS	low polyreactivity
QVQLVESGGGFDHAGGSLRLSCAAYGSTFVYNAMGWYRQAPGKERELVAAITSTGGNTDYADSVKGRFTISRDNAKNTVYLQMNSLKPEDTAVYYCNARDYYWLGFTYRFDYWGQGTQVTVSS	low polyreactivity
QVQLVESGGGLVQAGGSLRLSCAASGLIFYDNLGWYRQAPGKDRELVAAISSSGGSTSYADSVKGRFTISRDNAKNTVYLPMNSLKPEDTAVYYCAAKWSHVRDGPKYDYWGQGTQVTVSS	low polyreactivity
QVQLVESGGGLVQAGGSLRLSCAASGLIFDCYARGWYRQAPGKERELVAAITYTGGSTYYADSVKGRFTISRDNAKNTDYIQMNSLKPEDTAVYYCAARRQRDRYGYWGQGTQVTVSS	high polyreactivity
QVQLVESGGGLVQGGGSLRLSCDASGFIFPAYARGWYRQAPGKEREWVAAISKSGGRTYYADSVKGRFTISRDNAKNPVYLQMNRLKPEDTAVNYCPARLYNYDTSSSFDYWGQGTQVNVSS	high polyreactivity
QDQLVESGGGLVQAGGSLRLSCAASGINFPLYAMGWYRQAAGKERELVAAISSSDGDTFYADSVKWRFTISRDNAKNTVYLQMNSLKPYDTAVYYCAAVAPTELLYTYGYYPYYYWGQGTQVTVSS	high polyreactivity
QVQLVESGGGLVQAGGSLRLSCAASGRSFYVYAMGWYRQAPGMERELVATITRGGRTYYADSVKGRFTISRDNAKNTVYLQMNSLKPEDTAVSYCNDEDGSRRYRYEYWGHGTQVTVSS	high polyreactivity
QVQLVESGGGLVQAGGSLRLSCAASGRTFFSYTMGWSRQAPGKERELVAAISDSDGRTYYADSVKGRFTISRDNAKNTVYLQMNSLKPEDTAVYYCAAVPDKDWSRVRRYLFEDIYWGQGTQVTVSS	low polyreactivity
QVQLVESWGGLVQAGGSLRLSCAASGSTFVKNAMGWYRQAPGKERELVAAISYRGGRTYYADSVKGRYTISRDNAKNTVYLQMNSLKPEDTAVYYCNARYRTPSFIRMGYWGQGTQVTVSS	high polyreactivity
QVQLVESGGALVQAGGSLRLSCAASGSISTYAIGWYRQAPGKERELVAAMNKRGGSTYYADSVKGRFTISRDNAKNTVDLQMNSLKPADTAVDYCAAGLAHSAAFDYWGQGTQVTVSS	low polyreactivity
QVQLVESAGGLVQAGGSLRLSCAASGSTFVTYDMGWYRQAPGKERELVAAIRYSDGSTYYADSVKGRFTISRDNAKNTVYRQMNSLKPEDTAVYYCAADLGNYDYYGYVRYDYWGQGTQVTVSS	low polyreactivity
QVQLVESGGGLVQSGGSLRLSCAASGRIFDWNVMGSYRQAPGKERELVSVINDSTGTTYYADSVKGRFTISRDNAKNTVYLQMNSLKPEDTAVYYCAAYVWISSEEFYYWGQGTQVTVSS	low polyreactivity
QVQLVESGGGLVQAGGSLRLSCAASGRISVTYAMGWYRQAPGKERELVAAINTSGGTTYYADSVKGRFTISRDNAKNTVYLQMNSLKPEDTAVYYCNAVFYGGVGDNDYWGQGTQVTVSS	high polyreactivity
QVQVVQSGGGLVQAGGSLRLSCAASGSTFPGNAMGWNRQAPGKERELVASIRSSAASTYYADSVKGRFTISRDNAKNTVYLHMNSLKPEETAVYYWSVRSYRRFTNLSYRYDYWGQGTQVSVSS	high polyreactivity
QVQLVESGGGLLQAGGSLRLSCAASGSTFKGYAMGWYRQAPGKERELVAAISWSAGSTYYADSVKGRFTISRDNAKNTVYLQMNSLKPEDTAVYYCAKASVALRYYSYSLGRDYWGQGTQVTVSS	low polyreactivity
QVQLVESGGGLVQAGGSLRLSCAASGSTFWPYAMGWYRQAPGKERELVAAITTRDGSTYYADSVKGRFTISRDNAKNTVYLQMNSLKPEDTAVYYCAAKSSRYDYYYWGQGTQVTVSS	high polyreactivity
QVQLEESGGGLVQAGGSLRLSFAASGRTFWWYAMGWYRQAPGKERELVAAITWSGGSTYYADSVKGRFTISRDNAKNTVYLQMNSLKPEDTAVYYCAAYVHNKYDYWGQGTQVTVSS	low polyreactivity
